T1: hIL-1α (Homo sapiens, UniProt P01583)
T1 sequence (P01583 113-271): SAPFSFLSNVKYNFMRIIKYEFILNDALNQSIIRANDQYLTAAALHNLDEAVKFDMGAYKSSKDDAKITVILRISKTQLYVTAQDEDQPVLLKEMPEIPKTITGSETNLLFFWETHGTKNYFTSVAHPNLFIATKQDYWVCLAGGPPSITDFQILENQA

B1: DVD1-Ig: DVD-Ig binding hIL-1α and hIL-1β; VH/VL of 13F5.G5 fused directly to N-terminus of 3D12.E3 VH/VL, no linker (antibody)
VH: MQLSGLTSEDSAMYFCVRFPTGNDYYAMDYWGQGTSVTVSSQIQLVQSGPELKKPGETVKISCKASGYTFRNYGMNWVKQAPGKDLKRMAWINTYTGESTYADDFKGRFAFSLETSASTAYLQINNLKNEDTATYFCARGIYYYGSSYAMDYWGQGTSVTVSS
VL: PVEADDAATYYCQQNNEDPFTFGSGTKLEIKRNIQMTQTTSSLSASLGDRVTISCRASQDISNCLNWYQQKPDGTVKLLIYYTSRLHSGVPSRFSGSGSGTDYSLTISNLEQEDIATYFCQQGKTLPYAFGGGTKLEINRR
B2: DVD2-Ig: DVD-Ig as DVD1-Ig but with linkers ADAAP (light chain) and AKTTPP (heavy chain) (antibody)
VH: MQLSGLTSEDSAMYFCVRFPTGNDYYAMDYWGQGTSVTVSSAKTTPPQIQLVQSGPELKKPGETVKISCKASGYTFRNYGMNWVKQAPGKDLKRMAWINTYTGESTYADDFKGRFAFSLETSASTAYLQINNLKNEDTATYFCARGIYYYGSSYAMDYWGQGTSVTVSS
VL: PVEADDAATYYCQQNNEDPFTFGSGTKLEIKRADAAPNIQMTQTTSSLSASLGDRVTISCRASQDISNCLNWYQQKPDGTVKLLIYYTSRLHSGVPSRFSGSGSGTDYSLTISNLEQEDIATYFCQQGKTLPYAFGGGTKLEINR

How the values were obtained:
hIL-1β [1] = target: T2, hIL-1β (Homo sapiens, UniProt P01584); test: MRC-5 bioassay: neutralization of hIL-1β-induced IL-8 production; assay type: cell-based
T2 sequence (P01584 117-269): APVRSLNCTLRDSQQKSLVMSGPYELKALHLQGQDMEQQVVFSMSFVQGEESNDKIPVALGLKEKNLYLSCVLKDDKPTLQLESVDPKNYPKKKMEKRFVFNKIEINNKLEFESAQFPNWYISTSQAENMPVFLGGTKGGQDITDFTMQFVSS
Experimental: (§1) The MRC-5 cell line is a human lung fibroblast cell line that produces IL-8 in response to human IL-1α and IL-1β in a dose-dependent manner (see, Dinarello, Muegge, and Durum (2000) Curr. Protocols Immunol. 6:1). MRC-5 cells were cultured in 10% FBS complete MEM and grown at 37° C. in a 5% CO2 incubator. […] The supernatants were harvested, diluted, and IL-8 concentrations measured by ELISA using a standard IL-8 ELISA kit (R&D Systems). Antibody potency was determined by its ability to inhibit IL-8 production by MRC-5 cells.
The biological activity of DVD-Ig was measured using MRC-5 bioassay. The MRC-5 cell line is a human lung fibroblast cell line that produces IL-8 in response to human IL-1α and IL-1β in a dose-dependent manner. MRC-5 cells were obtained from ATCC and cultured in 10% FBS complete MEM at 37° C. in a 5% CO2 incubator. To determine neutralizing activity of the DVD-Ig against human IL-1α or IL-1β, 50 μl of antibody (1×10^−7 to 1×10^−12 M) in MEM/10% FBS was added to a 96 well plate and pre-incubated with 50 μl of hIL-1α or hIL-1β (200 pg/ml) for 1 hour at 37° C., 5% CO2. […] The supernatants were harvested and human IL-8 production measured by standard ELISA (R&D Systems, Minneapolis, Minn.). Neutralizing activity of the DVD-Ig binding protein was determined by its ability to inhibit IL-8 production.

hIL-1α [2] = target: T1, hIL-1α; test: MRC-5 bioassay: neutralization of hIL-1α-induced IL-8 production; assay type: cell-based; conditions: for IC50: antigen hIL-1α, read-out: Potency IC50
Experimental: as §1
The biological activity of DVD-Ig was measured using MRC-5 bioassay. The MRC-5 cell line is a human lung fibroblast cell line that produces IL-8 in response to human IL-1α and IL-1β in a dose-dependent manner. MRC-5 cells were obtained from ATCC and cultured in 10% FBS complete MEM at 37° C. in a 5% CO2 incubator. To determine neutralizing activity of the DVD-Ig against human IL-1α or IL-1β, 50 μl of antibody (1×10^−7 to 1×10^−12 M) in MEM/10% FBS was added to a 96 well plate and pre-incubated with 50 μl of hIL-1α or hIL-1β (200 pg/ml) for 1 hour at 37° C., 5% CO2. MRC-5 cells at a concentration of 1×10^5/ml were then added (100 μl) to all wells, and the plates were incubated overnight at 37° C. in a 5% CO2 incubator. The supernatants were harvested and human IL-8 production measured by standard ELISA (R&D Systems, Minneapolis, Minn.). Neutralizing activity of the DVD-Ig binding protein was determined by its ability to inhibit IL-8 production.

hIL-1α [3] = target: T1, hIL-1α; test: Tetravalent dual-specific antigen binding by Biacore (sequential antigen injection), hIL-1α; conditions: for Response Unit, 1st antigen hIL-1α: hIL-1α injected as 1st antigen on captured DVD-Ig; for Response Unit, 2nd antigen hIL-1α: hIL-1α injected as 2nd antigen after hIL-1β
Experimental: (§2) The kinetics of DVD-Ig molecules binding to rhIL1-α and rhIL1-β was determined by surface plasmon resonance-based measurements with a Biacore 3000 instrument (Biacore AB, Uppsala, Sweden) using HBS-EP (10 mM HEPES, pH 7.4, 150 mM NaCl, 3 mM EDTA, and 0.005% surfactant P20) at 25° C. All chemicals were obtained from Biacore AB (Uppsala, Sweden) or otherwise from a different source as described herein. Approximately, 5000 RU of goat anti-human IgG Fcγ fragment specific polyclonal antibody (Pierce Biotechnology Inc, Rockford, Ill.) diluted in 10 mM sodium acetate (pH 4.5) was directly immobilized across a CM5 research grade biosensor chip using a standard amine coupling kit according to manufacturer's instructions and procedures at […]. Unreacted moieties on the biosensor surface were blocked with ethanolamine. Modified carboxymethyl dextran surface in flowcell 2 and 4 was used as a reaction surface. Unmodified carboxymethyl dextran without goat anti-human IgG in flow cell 1 and 3 was used as the reference surface. For kinetic analysis, rate equations derived from the 1:1 Langmuir binding model were fitted simultaneously to association and dissociation phases of all ten injections (using global fit analysis) using the Bioevaluation 4.0.1 software. Purified DVD-Ig samples were diluted in HEPES-buffered saline for capture across goat anti-human IgG Fc specific reaction surfaces and injected over reaction matrices at a flow rate of […]. The association and dissociation rate constants, kon (M-1s-1) and koff (s-1) were determined under a continuous flow rate of […]. Rate constants were derived by making kinetic binding measurements at ten different antigen concentrations ranging from 1.25 to 1000 nM. The equilibrium dissociation constant (M) of the reaction between DVD-Ig molecule and rhIL1α/β was then calculated from the kinetic rate constants by the following formula: KD=koff/kon. Aliquots of rhIL1α/β samples were also simultaneously injected over a blank reference and reaction CM surface to record and subtract any nonspecific binding background to eliminate the majority of the refractive index change and injection noise. Surfaces were regenerated with two subsequent […] injections of 10 mM Glycine (pH 1.5) at a flow rate of […]. The anti-Fc antibody immobilized surfaces were completely regenerated and retained their full capture capacity over twelve cycles. The apparent stoichiometry of the captured DVD-Ig-rhIL1α/β complex was calculated under saturating binding conditions (steady-state equilibrium) using the following formula: […]
In addition, tetravalent dual-specific antigen binding of DVD-Ig binding protein was also analyzed by Biacore (Table 14). DVD-Ig binding protein was first captured via a goat anti-human Fc antibody on the Biacore sensor chip, and the first antigen was injected and a binding signal observed. As the DVD-Ig binding protein was saturated by the first antigen, the second antigen was then injected and the second signal observed. This was done either by first injecting IL-1β then IL-1α or by first injecting IL-1α followed by IL-1β for DVD2-Ig binding protein. In either sequence, a dual-binding activity was detected. Similar results were obtained for DVD1-Ig binding protein. Thus, each DVD-Ig binding protein was able to bind both antigens simultaneously as a dual-specific tetravalent molecule. […] Upon the injection of the second antigen, while DVD-Ig binding protein was already occupied by the first antigen, the stoichiometry of both DVD-Igs binding protein to the second antigen (i.e., hIL-1α or hIL-1β was between 1.0 and 1.3. Thus, DVD-Ig binding protein was able to bind two IL-1α and two IL-β molecules. DVD-Ig binding protein was first captured via a goat anti-human Fc antibody on the Biacore sensor chip, and the first antigen was injected and a binding signal observed, followed by the injection of the second antigen.

hIL-1β [4] = target: T2, hIL-1β; test: Surface plasmon resonance (Biacore) binding kinetics and affinity to hIL-1β; conditions: for koff / kon / Kd / Stoichiometry: antigen hIL-1β; for Kd: KD=koff/kon; for Stoichiometry: saturating binding conditions
Experimental: as §2

hIL-1α [5] = target: T1, hIL-1α; test: Surface plasmon resonance (Biacore) binding kinetics and affinity to hIL-1α; conditions: antigen hIL-1α; for Kd: KD=koff/kon
Experimental: as §2

[6] = hIL-1α injected as 2nd antigen, DVD-Ig already saturated with hIL-1β

| Molecule | IC50 (hIL-1β [1]; antigen hIL-1β, read-out: Potency IC50) | neutralizing activity against hIL-1α, fold less than that of the chimeric antibodies (hIL-1α [2]) | IC50 (hIL-1α [2]) | Stoichiometry hIL-1α:DVD-Ig (hIL-1α [3]; hIL-1α injected as 1st antigen) | Response Unit, 1st antigen hIL-1α (hIL-1α [3]) | Response Unit, 2nd antigen hIL-1α (hIL-1α [3]) | Stoichiometry hIL-1α:DVD-Ig (hIL-1α [3]; [6]) | koff (hIL-1β [4]) | kon (hIL-1β [4]) | Kd (hIL-1β [4]) | Stoichiometry (hIL-1β [4]) | koff (hIL-1α [5]) | kon (hIL-1α [5]) | Kd (hIL-1α [5]) | Stoichiometry (hIL-1α [5]; saturating binding conditions) | neutralizing activity to hIL-1β, fold higher than that of DVD1-Ig (hIL-1β [1]) | binding affinity to hIL-1β, fold higher than that of DVD1-Ig (hIL-1β [4]) |
| --- | --- | --- | --- | --- | --- | --- | --- | --- | --- | --- | --- | --- | --- | --- | --- | --- | --- |
| B1 | 3.1 nM | 3 fold | 2.3 nM | 2.3 | 190 Response Unit | hIL-1α: 107 Response Unit | 1.1 | 0.00159 s⁻¹ | 609000 M⁻¹ s⁻¹ | 2.6 nM | 1.5 | 0.000105 s⁻¹ | 37000 M⁻¹ s⁻¹ | 2.83 nM | 1.8 | – | – |
| B2 | – | 3 fold | 2.9 nM | 1.8 | 209 Response Unit | hIL-1α: 131 Response Unit | 1.2 | 0.00095 s⁻¹ | 1.19e+06 M⁻¹ s⁻¹ | 0.798 nM | 1.8 | 0.000252 s⁻¹ | 73500 M⁻¹ s⁻¹ | 3.42 nM | – | 3 fold | 3 fold |

Source: US8889130B2, “Treatment of osteoarthritis and pain” (Abbvie Inc., priority 2011, dated 2014)
